Results as given in article PMC10858868, “TFIP11 promotes replication fork reversal to preserve genome stability”.

Biological target: T1, TFIP11 (UniProt Q9UBB9 1-837)
T1 sequence: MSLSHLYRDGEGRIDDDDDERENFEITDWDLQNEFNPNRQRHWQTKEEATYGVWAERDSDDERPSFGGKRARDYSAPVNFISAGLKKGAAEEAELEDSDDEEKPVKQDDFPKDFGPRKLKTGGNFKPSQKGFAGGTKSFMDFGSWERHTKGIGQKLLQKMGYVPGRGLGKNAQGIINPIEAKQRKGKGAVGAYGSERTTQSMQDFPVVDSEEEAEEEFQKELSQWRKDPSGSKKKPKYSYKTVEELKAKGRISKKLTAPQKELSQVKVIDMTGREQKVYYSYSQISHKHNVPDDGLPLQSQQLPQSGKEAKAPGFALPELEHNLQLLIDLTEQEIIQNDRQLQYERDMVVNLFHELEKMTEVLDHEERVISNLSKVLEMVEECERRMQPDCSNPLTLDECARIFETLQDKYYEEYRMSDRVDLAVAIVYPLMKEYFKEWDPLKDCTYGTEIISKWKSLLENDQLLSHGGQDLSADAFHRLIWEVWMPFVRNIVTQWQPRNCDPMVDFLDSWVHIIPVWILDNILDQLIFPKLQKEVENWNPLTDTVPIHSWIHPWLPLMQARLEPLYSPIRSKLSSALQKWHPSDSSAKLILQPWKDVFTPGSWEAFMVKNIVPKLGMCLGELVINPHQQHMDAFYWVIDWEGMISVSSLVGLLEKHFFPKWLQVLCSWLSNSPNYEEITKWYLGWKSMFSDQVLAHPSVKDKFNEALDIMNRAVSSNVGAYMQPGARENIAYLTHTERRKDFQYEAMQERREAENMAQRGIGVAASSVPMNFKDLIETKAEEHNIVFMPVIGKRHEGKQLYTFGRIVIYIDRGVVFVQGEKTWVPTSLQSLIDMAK
Test: EMSA; 15, 30 nM TFIP11; 0.5 nM DNA; at most about 6% bound in Source Data; EMSA: 10 mM MgCl2, 2.5% glycerol, 0.05% NP-40, 0.5 nM biotin-DNA, 20 min, room temperature (Pierce LightShift kit). Pull-down: 20 mM Tris-HCl pH 7.5, 120 mM NaCl, 0.1% Triton X-100, 2 mM CaCl2, 10 mM Mg(OAc)2, 1 mM DTT, 0.1 mg/mL BSA, 4 °C, 30 min
Details: protein: recombinant, tags: His-SUMO (N-terminal)

Binder | binding result (label: 5'-biotin on oligo 1, blunt) | binding result (label: 5'-biotin, single strand)
dsDNA (oligo 1 + oligo 2) (dsDNA) DNA 1: GACGCTGCCGAATTCTACCAGTGCCTTGCTAGGACATCTTTGCCCACCTGCAGGTTCAC DNA 2: GTGAACCTGCAGGTGGGCAAAGATGTCCTAGCAAGGCACTGGTAGAATTCGGCAGCGTC | no binding | 
ssDNA (oligo 1) (ssDNA) DNA: GACGCTGCCGAATTCTACCAGTGCCTTGCTAGGACATCTTTGCCCACCTGCAGGTTCAC |  | no binding
